Results taken from article PMC6068105.

What was measured:
[1] = target: recombinant mouse α5β1 integrin protein (mouse) (UniProt P11688); experiment: SPR; Biacore T100, 25 °C; α5β1 integrin (1 μg/ml) captured by anti-α5 integrin antibody on CM5 chip; CSGal-1 injected at 30 μl/min; 10 mM HEPES pH 7.4, 150 mM NaCl, 3 mM EDTA, 0.0005% TWEEN-20; steady-state model
[2] = target: Human plasma fibronectin (human); experiment: SPR; Biacore T100, 25 °C; fibronectin (10 μg/ml) directly immobilized on CM5 chip; CSGal-1 injected at 30 μl/min; 10 mM HEPES pH 7.4, 150 mM NaCl, 3 mM EDTA, 0.0005% TWEEN-20; steady-state model
Chain of Human plasma fibronectin (human) (P02751 other isoform, or with tags, fused parts or gaps): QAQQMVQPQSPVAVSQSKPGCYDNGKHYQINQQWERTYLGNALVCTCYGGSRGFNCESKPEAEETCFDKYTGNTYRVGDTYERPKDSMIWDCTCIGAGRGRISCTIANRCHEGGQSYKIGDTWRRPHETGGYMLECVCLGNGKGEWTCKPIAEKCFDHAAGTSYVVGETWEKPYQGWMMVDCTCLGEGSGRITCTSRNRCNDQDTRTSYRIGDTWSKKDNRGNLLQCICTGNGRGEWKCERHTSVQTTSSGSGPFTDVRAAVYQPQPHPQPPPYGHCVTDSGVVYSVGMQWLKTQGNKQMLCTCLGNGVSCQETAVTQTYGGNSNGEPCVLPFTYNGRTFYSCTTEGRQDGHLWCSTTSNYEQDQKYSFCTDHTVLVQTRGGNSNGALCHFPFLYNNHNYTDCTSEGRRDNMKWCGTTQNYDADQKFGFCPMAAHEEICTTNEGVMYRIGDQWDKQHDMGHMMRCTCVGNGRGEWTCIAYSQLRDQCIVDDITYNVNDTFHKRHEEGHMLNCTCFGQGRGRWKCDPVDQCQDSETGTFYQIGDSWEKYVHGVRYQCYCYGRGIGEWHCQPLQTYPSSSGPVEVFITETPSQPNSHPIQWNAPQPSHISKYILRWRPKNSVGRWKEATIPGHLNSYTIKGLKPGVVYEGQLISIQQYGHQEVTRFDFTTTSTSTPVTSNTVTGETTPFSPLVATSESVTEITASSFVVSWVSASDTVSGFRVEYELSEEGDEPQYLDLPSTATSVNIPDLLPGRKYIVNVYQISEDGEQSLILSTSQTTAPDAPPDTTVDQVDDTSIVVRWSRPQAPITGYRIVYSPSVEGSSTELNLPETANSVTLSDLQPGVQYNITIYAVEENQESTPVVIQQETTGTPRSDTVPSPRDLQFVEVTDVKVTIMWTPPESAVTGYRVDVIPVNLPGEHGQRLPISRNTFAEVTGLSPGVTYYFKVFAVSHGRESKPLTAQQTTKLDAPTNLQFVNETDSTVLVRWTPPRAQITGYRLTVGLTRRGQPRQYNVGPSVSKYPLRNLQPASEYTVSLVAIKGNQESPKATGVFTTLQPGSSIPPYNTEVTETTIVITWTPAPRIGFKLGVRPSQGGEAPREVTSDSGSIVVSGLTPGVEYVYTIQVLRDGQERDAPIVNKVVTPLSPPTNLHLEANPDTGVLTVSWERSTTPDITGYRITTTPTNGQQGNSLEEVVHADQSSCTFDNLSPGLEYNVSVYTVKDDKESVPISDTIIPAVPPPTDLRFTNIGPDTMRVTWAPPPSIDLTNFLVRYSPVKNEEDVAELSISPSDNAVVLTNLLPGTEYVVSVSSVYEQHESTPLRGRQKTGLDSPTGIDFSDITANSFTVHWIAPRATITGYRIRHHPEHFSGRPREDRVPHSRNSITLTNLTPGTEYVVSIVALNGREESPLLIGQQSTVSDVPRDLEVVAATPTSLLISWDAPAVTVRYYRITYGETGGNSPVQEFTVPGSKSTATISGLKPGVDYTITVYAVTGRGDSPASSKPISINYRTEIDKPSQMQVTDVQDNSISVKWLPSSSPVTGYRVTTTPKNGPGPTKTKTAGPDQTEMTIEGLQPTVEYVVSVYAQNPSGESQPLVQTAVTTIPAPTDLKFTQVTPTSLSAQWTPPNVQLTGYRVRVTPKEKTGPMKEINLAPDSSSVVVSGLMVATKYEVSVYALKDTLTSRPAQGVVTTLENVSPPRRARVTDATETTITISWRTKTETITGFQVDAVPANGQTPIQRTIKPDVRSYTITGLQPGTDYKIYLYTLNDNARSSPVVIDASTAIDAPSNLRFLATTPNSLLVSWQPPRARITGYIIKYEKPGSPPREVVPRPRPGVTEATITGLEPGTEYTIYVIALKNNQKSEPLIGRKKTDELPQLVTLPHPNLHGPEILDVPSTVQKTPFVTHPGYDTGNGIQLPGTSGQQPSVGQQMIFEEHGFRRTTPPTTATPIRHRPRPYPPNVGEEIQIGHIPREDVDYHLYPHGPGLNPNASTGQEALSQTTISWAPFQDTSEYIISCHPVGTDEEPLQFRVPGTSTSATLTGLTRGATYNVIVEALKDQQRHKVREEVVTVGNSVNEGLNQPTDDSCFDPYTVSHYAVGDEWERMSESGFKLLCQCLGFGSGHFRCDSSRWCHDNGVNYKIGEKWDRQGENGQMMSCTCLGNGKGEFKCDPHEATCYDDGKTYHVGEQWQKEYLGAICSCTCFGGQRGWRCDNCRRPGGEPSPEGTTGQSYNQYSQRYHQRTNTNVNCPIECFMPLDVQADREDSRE

CSGal-1, cysteine-less mutant of human galectin-1, tag-free recombinant protein (from UniProt P09382 1-135) (natural protein)
Kd [1]: 0.852 µM
Kd [2]: 12.4 µM
